Results: US12202905B2, “Methods and compositions relating to adenosine receptors” (Twist Bioscience Corporation, priority 2021, dated 2025)
Numbering of substitutions follows the chain as printed. Names may count otherwise.

T1: A2b (Homo sapiens, UniProt P29275)
T1 construct: expressed in transfected cells; host or cells: CHO-K1
T1 sequence (P29275 1-332): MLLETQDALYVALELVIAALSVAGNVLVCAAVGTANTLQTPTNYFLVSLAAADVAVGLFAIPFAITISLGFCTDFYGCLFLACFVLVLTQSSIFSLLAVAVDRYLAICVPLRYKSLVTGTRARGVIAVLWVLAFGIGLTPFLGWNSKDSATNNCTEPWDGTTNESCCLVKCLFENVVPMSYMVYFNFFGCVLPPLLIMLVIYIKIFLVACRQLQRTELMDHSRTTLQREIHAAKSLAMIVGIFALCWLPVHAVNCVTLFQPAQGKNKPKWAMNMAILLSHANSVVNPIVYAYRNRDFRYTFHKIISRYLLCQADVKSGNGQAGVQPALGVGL

B1: A2A-19: A2AR variant; VH CDR1-3 SEQ ID NO 24/113/202 (antibody, V domains shown)
VH: EVQLVESGGGLVKPGGSLRLSCAASGFTFSGYAMNWVRQAPGKGLEWVSTISGSGASTYYADSVKGRFTISRDNSKNTLYLQMNSLRAEDTAVYYCAAARGYKRWRLGRRYDYWGQGTLVTVSS
VL: DIQMTQSPSSLSASVGDRVTITCRASQSISDYLNWYQQKPGKAPKLLIYTASTLQSGVPSRFSGSGSGTDFTLTISSLQPEDFATYYCEQSYSTPWTFGGGTKLEIK
B2: A2A-27: A2AR variant; VH CDR1-3 SEQ ID NO 32/121/210 (antibody, V domains shown)
VH: B1 VH with G31S, N35A, T50A, A56G, Y60F, K103W, G108W
VL: B1 VL with S30G, D31S, T50G, T53N, E89Q, S91G, T94A, W96R
B3: A2A-26: A2AR variant; VH CDR1-3 SEQ ID NO 31/120/209 (antibody, V domains shown)
VH: B1 VH with V5L, K13Q, G31T, N35G, T50G, G55A, A56G, Y102H, K103W
VL: B1 VL with S28T, D31R, T50S, E89Q, W96H, L104V
B4: A2A-51: A2AR variant; VH CDR1-3 SEQ ID NO 56/145/234 (antibody, V domains shown)
VH: EVQLVESGGGLVKPGGSLRLSCAASGYTFNDYYINWVRQAPGKGLEWVGDINPNNGANIYNDSVKGRFTISRDNSKNTLYLQMNSLRAEDTAVYYCARNYGSSYYALDYWGQGTLVTVSS
VL: DIQMTQSPSSLSASVGDRVTITCSASSSLSYMHWYQQKPGKAPKLLIYGASPRESGVPSRFSGSGSGTDFTLTISSLQPEDFATYYCRQMSSYPPTFGQGTKLEIK
B5: A2A-17: A2AR variant; VH CDR1-3 SEQ ID NO 22/111/200 (antibody, V domains shown)
VH: EVQLVESGGGLVKPGGSLRLSCAASGFNIGNTYMHWFRQAPGKGLEWVGVINPNYGTTRYNDSVKGRFTISRDNSKNTLYLQMNSLRAEDTAVYYCARDYGSSSFDYWGQGTLVTVSS
VL: DIQMTQSPSSLSASVGDRVTITCKASQSVRNDVVWYQQKPGKAPKLLIYRGNTLRPGVPSRFSGSGSGTDFTLTISSLQPEDFATYYCQQYYGIPLTFGQGTKLEIK
B6: A2A-24: A2AR variant; VH CDR1-3 SEQ ID NO 29/118/207 (antibody, V domains shown)
VH: B5 VH
VL: B5 VL
B7: A2A-53: A2AR variant; VH CDR1-3 SEQ ID NO 58/147/236 (antibody, V domains shown)
VH: EVQLVESGGGLVKPGGSLRLSCAASGFNIIDDYMHWVRQAPGKGLEWVGMITDTGEPTDADSVKGRFTISRDNSKNTLYLQMNSLRAEDTAVYYCVYDYIYAMDYWGQGTLVTVSS
VL: DIQMTQSPSSLSASVGDRVTITCKASQNMGSNVAWYQQKPGKAPKLLIYSASHRSSGVPSRFSGSGSGTDFTLTISSLQPEDFATYYCQQWNYPRITFGQGTKLEIK
B8: A2A-31: A2AR variant; VH CDR1-3 SEQ ID NO 36/125/214 (antibody, V domains shown)
VH: EVQLVESGGGLVKPGGSLRLSCAASGYLFTDYNMNWVRQAPGKGLEWVGWIYPGTGNTYNDSVKGRFTISRDNSKNTLYLQMNSLRAEDTAVYYCTALYYGSSWERYFDVWGQGTLVTVSS
VL: DIQMTQSPSSLSASVGDRVTITCRASQSISDYLNWYQQKPGKAPKLLIYGASPRESGVPSRFSGSGSGTDFTLTISSLQPEDFATYYCQQDNIWPYTFGQGTKLEIK

Legend:
A2AR [1] = biological target: T2, A2AR (Homo sapiens, UniProt P29274); assay: A2AR cell functional cAMP assays (allosteric and antagonistic); conditions: NECA titration, IgG titration (NECA 0.5 uM), IgG titration (NECA 10 uM)
T2 sequence (P29274 whole entry): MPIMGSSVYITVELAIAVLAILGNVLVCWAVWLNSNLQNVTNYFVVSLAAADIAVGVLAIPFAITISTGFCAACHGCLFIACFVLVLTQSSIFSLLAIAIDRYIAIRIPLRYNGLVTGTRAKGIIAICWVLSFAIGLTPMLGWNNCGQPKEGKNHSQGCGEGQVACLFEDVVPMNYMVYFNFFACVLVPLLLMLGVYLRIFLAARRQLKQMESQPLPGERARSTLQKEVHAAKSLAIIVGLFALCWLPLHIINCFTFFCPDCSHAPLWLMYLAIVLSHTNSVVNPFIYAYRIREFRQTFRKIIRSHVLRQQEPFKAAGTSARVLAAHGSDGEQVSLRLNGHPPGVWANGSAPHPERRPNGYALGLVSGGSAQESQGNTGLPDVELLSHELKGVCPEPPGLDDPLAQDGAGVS
Description: Allosteric and Antagonistic cAMP Assays were Performed Using A2A Cell Lines

A2b = biological target: T1, A2b; assay: A2b functional antagonistic cAMP assay (CHO-K1 cells); assay type: cell-based; conditions: IgG 3× titration from 1000 nM, NECA 5 nM
Description: FIG. 46 depicts the functional cAMP assay performed on selected A2b antibodies. CHO-K1 cells were incubated with an A2b antibody. Next, the cells were stimulated using NECA. Activation of A2b was monitored based on 3′-5′-cyclic adenosine monophosphate (cAMP) production in the cell lines.
First, cells were pre-incubated with A2A-17, A2A-19, A2A-26, A2A-27, A2A-35, A2A-36, and A2A-83 at a 3× titration starting at 100 nM. […] The results are depicted in FIGS. 47B-47C.
An antagonistic cAMP assay at high levels of IgC and low ligand levels was performed. Cells were pre-incubated with A2A-17, A2A-19, A2A-26, A2A-27, A2A-35, A2A-36, A2A-83, and A2A-72 at a 3× titration starting at 1000 nM. […] The results are depicted in FIG. 47D. […] Properties of A2b are depicted in Table 23.

[2] = test system: human colon carcinoma (Colo205); assay: In vivo colon carcinoma model, tumor volume; conditions: mice with Colo205, tumor volume over 30 days
Description: Mice with human colon carcinoma (Colo205) were divided into 4 groups. Group 1 was the isotype control, Group 2 mice were treated with Anti-PD1, Group 3 mice were treated with variant A2A-77 and Group 4 mice were treated with variant A2A-81. Tumor volume is measured over 30 days. Results are depicted in FIGS. 34A-34D.
Additional studies were performed with mice treated with 10 mg/kg variant A2A-51 (Group 5), A2A-28 (Group 6), Ab7/PD1TAO15 (Group 7), and AZD4635 (Group 8). Mice were also treated with 20 mg/kg according to the schedule in FIG. 34E. Data is seen in FIGS. 34F-34K.

A2AR [3] = biological target: T2, A2AR; assay: T cell activation assay (PBMCs, NECA, anti-CD3ε/CD28 beads, IFN-γ release); assay type: cell-based; design: endogenous in cells; host or cells: PBMCs; conditions: for T cell activation: NECA 1 μM, IFN-γ release
Description: The cells were then activated by magnetic beads coating with anti-CD3ε/CD28 antibodies. Three days after incubation, the supernatant was collected for detecting IFN-γ release and evaluating T cell activation. ZM-241385 is potent and used as a selective small molecule A2A antagonist control.
A primary T-cell activation assay was performed as described above. Data is seen in FIG. 33D and Table 21.

Row | Molecule | function in cAMP assays (A2AR [1]) | T cell activation (A2AR [3]) | also measured
1 | B1 | improved function |  | 
2 | B2 | improved function |  | A2a/A2b antagonist properties (A2b): A2a antagonist that cross links with A2b, while also being an A2b antagonist
3 | B3 | improved function |  | 
4 | B4 |  | T cell activation was observed | tumor size / tumor volume [2]: ability to reduce tumor volume; T cell activation with more (high) NECA (A2AR [3]; high NECA): still works well
5 | B5 | improved function |  | 
6 | B6 | improved function |  | 
7 | B7 |  | T cell activation was observed | 
8 | B8 |  | T cell activation was observed | 
